B1: GRB2-associated-binding protein 1 (Homo sapiens), Q13480 (parent)
chain: MSGGEVVCSGWLRKSPPEKKLKRYAWKRRWFVLRSGRLTGDPDVLEYYKNDHAKKPIRIIDLNLCQQVDAGLTFNKKEFENSYIFDINTIDRIFYLVADSEEEMNKWVRCICDICGFNPTEEDPVKPPGSSLQAPADLPLAINTAPPSTQADSSSATLPPPYQLINVPPHLETLGIQEDPQDYLLLINCQSKKPEPTRTHADSAKSTSSETDCNDNVPSHKNPASSQSKHGMNGFFQQQMIYDSPPSRAPSASVDSSLYNLPRSYSHDVLPKVSPSSTEADGELYVFNTPSGTSSVETQMRHVSISYDIPPTPGNTYQIPRTFPEGTLGQTSKLDTIPDIPPPRPPKPHPAHDRSPVETCSIPRTASDTDSSYCIPTAGMSPSRSNTISTVDLNKLRKDASSQDCYDIPRAFPSDRSSSLEGFHNHFKVKNVLTVGSVSSEELDENYVPMNPNSPPRQHSSSFTEPIQEANYVPMTPGTFDFSSFGMQVPPPAHMGFRSSPKTPPRRPVPVADCEPPPVDRNLKPDRKVKPAPLEIKPLPEWEELQAPVRSPITRSFARDSSRFPMSPRPDSVHSTTSSSDSHDSEENYVPMNPNLSSEDPNLFGSNSLDGGSSPMIKPKGDKQVEYLDLDLDSGKSTPPRKQKSSGSGSSVADERVDYVVVDQQKTLALKSTREAWTDGRQSTESETPAKSVK
partner: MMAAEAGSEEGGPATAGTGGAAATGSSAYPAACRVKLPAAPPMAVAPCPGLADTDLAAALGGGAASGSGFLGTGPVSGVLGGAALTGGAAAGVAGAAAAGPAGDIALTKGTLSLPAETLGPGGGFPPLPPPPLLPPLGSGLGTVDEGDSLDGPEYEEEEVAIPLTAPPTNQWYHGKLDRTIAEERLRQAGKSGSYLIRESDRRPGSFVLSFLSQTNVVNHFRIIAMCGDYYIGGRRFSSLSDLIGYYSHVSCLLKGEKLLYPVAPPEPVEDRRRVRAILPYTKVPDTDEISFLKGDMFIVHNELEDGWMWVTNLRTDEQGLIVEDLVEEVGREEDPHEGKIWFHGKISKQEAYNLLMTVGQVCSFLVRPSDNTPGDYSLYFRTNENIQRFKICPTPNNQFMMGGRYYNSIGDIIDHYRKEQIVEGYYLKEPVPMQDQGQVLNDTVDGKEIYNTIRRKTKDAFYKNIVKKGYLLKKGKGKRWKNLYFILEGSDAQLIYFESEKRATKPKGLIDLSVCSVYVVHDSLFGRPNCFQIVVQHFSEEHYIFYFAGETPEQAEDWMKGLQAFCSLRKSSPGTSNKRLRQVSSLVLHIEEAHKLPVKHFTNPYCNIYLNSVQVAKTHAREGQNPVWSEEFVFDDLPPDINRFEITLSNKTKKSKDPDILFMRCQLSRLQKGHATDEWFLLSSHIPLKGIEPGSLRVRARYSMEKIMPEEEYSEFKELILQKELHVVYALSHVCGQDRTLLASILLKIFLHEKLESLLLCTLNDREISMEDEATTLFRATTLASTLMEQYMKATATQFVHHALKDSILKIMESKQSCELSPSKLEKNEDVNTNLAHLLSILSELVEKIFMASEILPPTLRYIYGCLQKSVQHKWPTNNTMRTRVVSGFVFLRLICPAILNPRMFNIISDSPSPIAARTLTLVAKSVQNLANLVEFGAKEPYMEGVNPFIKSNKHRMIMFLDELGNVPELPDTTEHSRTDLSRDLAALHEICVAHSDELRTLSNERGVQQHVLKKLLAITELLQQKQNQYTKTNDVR

Variants of: B1
Details: with rasa1_rat Rasa1, P50904

Row | Variant | effect of a mutation on the interaction
1 | P320S | disrupting interaction strength
